One may read the IC50 as the concentration that inhibits the measured activity by half. As a reminder, the EC50 is the concentration at which the effect is half-maximal. High values mean lower potency in that assay, low ones higher potency in that assay.

For assay [1], the target named is gastrin-releasing peptide receptor on PC-3 cells (UniProt P30550). The assay is described as follows: competition with 125I-BBN on PC-3 cells, inhibitor 250 to 2 nM.
For assay [2], the target named is somatostatin receptors on AR42J cells (rat). Put plainly: apparent IC50, competition with 111In(DTPA-octreotide) on AR42J cells, 3 h at RT.
Chain of somatostatin receptors on AR42J cells (rat) (P30680 whole entry): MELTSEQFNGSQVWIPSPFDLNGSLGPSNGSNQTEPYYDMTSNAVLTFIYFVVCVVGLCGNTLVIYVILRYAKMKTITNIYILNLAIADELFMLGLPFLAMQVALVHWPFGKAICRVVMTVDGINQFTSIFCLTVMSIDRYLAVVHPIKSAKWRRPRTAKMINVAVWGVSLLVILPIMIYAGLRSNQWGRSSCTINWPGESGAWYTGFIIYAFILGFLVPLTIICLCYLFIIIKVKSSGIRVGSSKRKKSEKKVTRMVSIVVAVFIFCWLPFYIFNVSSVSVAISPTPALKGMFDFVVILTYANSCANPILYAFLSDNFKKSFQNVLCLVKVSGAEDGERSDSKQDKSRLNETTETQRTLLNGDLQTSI
The target of assay [3] is receptor for bombesin analogues (target not named where the EC50 values are printed) (UniProt P30550). The assay is described as follows: assay and target not described at this place.
Chain of receptor for bombesin analogues (target not named where the EC50 values are printed) (P30550 whole entry): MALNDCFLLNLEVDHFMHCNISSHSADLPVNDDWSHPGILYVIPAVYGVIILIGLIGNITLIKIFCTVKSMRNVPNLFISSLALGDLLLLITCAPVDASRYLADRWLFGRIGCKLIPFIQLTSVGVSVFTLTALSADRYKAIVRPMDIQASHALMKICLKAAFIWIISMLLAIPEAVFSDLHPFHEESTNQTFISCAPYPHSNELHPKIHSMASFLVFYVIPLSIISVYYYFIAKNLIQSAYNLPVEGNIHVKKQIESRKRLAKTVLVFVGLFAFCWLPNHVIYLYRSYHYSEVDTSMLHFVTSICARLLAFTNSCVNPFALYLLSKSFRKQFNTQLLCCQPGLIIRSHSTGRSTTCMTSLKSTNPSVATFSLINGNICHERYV

Chain of gastrin-releasing peptide receptor on PC-3 cells (P30550 whole entry): as above

In assay [1], “commercially available BBN peptide (BBN positive control)” came in with a half-maximal inhibitory concentration (IC50) of 24.4 nM. As to ^115In(DTPA-octreotide) (peptide), the half-inhibitory concentration (IC50) in assay [2] is 6.3 nM. For the substance “Al^19F(IMP466), IMP466 = NOTA-D-Phe-Cys-Phe-D-Trp-Lys-Thr-Cys-Throl (peptide)”, the concentration for half-maximal inhibition (IC50) in assay [2] amounted to 3.6 nM.

Consider “^69Ga(IMP466), IMP466 = NOTA-D-Phe-Cys-Phe-D-Trp-Lys-Thr-Cys-Throl (peptide)”, for which the IC50 in assay [2] came out at 13 nM.

Substance ^125I-Bombesin (Perkin-Elmer) (peptide) showed a half-maximal effective concentration (EC50) in assay [3] of 59 nM.

These data come from US20140017168A1.
